Laboratory results published in publication PMC7921410, “Structure of mammalian Mediator complex reveals Tail module architecture and interaction with a conserved core” (Nature Communications, 2021).

T1: MED27 (mouse (Mus musculus; endogenous in CH12), UniProt Q9DB40 1-311)
T1 construct: MED27, Mus musculus, endogenous upper Tail subunit of Mediator; source: endogenous, CH12 mouse B lymphoma nuclear extract; immunopurified as part of Mediator (FLAG M2 agarose, FLAG peptide elution)
T1 sequence (looked up): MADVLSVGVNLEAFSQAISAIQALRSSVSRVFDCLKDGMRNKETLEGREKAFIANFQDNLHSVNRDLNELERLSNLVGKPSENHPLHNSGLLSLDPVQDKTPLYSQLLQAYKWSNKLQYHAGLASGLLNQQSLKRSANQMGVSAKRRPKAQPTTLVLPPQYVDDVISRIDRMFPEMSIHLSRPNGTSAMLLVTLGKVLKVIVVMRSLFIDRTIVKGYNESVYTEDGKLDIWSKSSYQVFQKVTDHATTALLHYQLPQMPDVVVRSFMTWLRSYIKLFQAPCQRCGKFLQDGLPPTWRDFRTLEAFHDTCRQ

T2: MED17 (mouse (Mus musculus; endogenous in CH12), UniProt Q8VCD5 1-649)
T2 construct: MED17, Mus musculus, endogenous Head module scaffold subunit of Mediator; source: endogenous, CH12 mouse B lymphoma nuclear extract; immunopurified as part of Mediator (FLAG M2 agarose, FLAG peptide elution)
T2 sequence (looked up): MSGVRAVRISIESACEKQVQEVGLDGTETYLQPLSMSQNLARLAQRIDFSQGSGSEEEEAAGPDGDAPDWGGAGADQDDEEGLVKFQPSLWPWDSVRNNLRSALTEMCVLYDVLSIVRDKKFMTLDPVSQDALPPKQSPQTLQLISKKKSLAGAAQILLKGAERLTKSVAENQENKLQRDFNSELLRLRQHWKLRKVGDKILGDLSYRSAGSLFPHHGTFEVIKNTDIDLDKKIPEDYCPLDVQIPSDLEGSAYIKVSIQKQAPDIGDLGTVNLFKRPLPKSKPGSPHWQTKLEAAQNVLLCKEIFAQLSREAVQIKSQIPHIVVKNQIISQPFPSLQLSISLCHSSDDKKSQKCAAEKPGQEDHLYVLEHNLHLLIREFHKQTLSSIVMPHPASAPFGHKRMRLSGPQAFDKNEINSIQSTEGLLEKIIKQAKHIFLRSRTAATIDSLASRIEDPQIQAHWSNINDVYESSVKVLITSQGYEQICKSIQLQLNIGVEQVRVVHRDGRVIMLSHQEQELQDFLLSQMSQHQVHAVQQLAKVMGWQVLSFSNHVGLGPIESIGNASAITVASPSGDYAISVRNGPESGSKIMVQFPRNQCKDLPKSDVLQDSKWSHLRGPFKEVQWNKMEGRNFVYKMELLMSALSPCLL

T3: MED20 (mouse (Mus musculus; endogenous in CH12), UniProt Q9R0X0 1-212)
T3 construct: MED20, Mus musculus, endogenous Head module subunit of Mediator; source: endogenous, CH12 mouse B lymphoma nuclear extract; immunopurified as part of Mediator (FLAG M2 agarose, FLAG peptide elution)
T3 sequence (looked up): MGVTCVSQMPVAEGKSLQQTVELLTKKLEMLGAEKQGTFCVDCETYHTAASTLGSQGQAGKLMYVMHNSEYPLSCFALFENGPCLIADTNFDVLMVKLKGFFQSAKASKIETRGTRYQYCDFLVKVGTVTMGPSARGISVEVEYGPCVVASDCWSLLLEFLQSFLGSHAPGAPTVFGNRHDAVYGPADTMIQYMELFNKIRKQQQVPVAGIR

T4: MED7 (mouse (Mus musculus; endogenous in CH12), UniProt Q9CZB6 1-233)
T4 construct: MED7, Mus musculus, endogenous Middle module subunit of Mediator; source: endogenous, CH12 mouse B lymphoma nuclear extract; immunopurified as part of Mediator (FLAG M2 agarose, FLAG peptide elution)
T4 sequence (looked up): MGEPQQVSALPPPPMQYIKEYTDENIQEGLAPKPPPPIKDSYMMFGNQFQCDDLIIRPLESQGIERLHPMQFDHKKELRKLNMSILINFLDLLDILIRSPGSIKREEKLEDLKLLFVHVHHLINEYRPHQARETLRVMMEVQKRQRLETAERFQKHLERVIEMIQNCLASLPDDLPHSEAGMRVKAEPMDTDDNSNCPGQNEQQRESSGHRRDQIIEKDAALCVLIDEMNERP

T5: MED22 (mouse (Mus musculus; endogenous in CH12), UniProt Q62276 1-200)
T5 construct: MED22, Mus musculus, endogenous Head module subunit of Mediator; source: endogenous, CH12 mouse B lymphoma nuclear extract; immunopurified as part of Mediator (FLAG M2 agarose, FLAG peptide elution)
T5 sequence (looked up): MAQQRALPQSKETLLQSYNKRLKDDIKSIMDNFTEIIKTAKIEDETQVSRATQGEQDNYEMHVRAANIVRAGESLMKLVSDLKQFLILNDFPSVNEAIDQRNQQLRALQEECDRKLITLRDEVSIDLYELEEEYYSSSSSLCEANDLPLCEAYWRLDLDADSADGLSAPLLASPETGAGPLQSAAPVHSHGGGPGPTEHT

T6: MED29 (mouse (Mus musculus; endogenous in CH12), UniProt Q9DB91 1-199)
T6 construct: MED29, Mus musculus, endogenous upper Tail subunit of Mediator; source: endogenous, CH12 mouse B lymphoma nuclear extract; immunopurified as part of Mediator (FLAG M2 agarose, FLAG peptide elution)
T6 sequence (looked up): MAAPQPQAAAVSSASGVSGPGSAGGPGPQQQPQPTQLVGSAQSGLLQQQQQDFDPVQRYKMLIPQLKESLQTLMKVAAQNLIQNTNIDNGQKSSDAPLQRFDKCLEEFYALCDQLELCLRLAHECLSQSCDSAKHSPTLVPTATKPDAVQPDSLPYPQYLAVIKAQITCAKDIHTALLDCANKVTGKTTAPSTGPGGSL

B1: MED18 (natural protein, mouse (Mus musculus; endogenous in CH12), UniProt Q9CZ82 1-208, looked up)
chain: MEAPPVTMMPVTGGTINMMEYLLQGSVLDHSLESLIHRLRGLCDNMEPETFLDHEMVFLLKGQQASPFVLRARRSMDRAGAPWHLRYLGQPEMGDKNRHALVRNCVDIATSENLTDFLMEMGFRMDHEFVAKGHLFRKGIMKVVVYKIFRILVPGNTDSTEALSLSYLVELSVVAPAGQDMVSDDMRNFAEQLKPLVHLEKIDPKRLM
notes: MED18, Mus musculus, endogenous Head module subunit of Mediator; source: endogenous, CH12 mouse B lymphoma nuclear extract; immunopurified as part of Mediator (FLAG M2 agarose, FLAG peptide elution)
B2: MED21 (natural protein, mouse (Mus musculus; endogenous in CH12), UniProt Q9CQ39 1-144, looked up)
chain: MADRLTQLQDAVNSLADQFCNAIGVLQQCGPPASFSNIQTAINKDQPANPTEEYAQLFAALIARTAKDIDVLIDSLPSEESTAALQAASLYKLEEENHEAATCLEDVVYRGDMLLEKIQSALADIAQSQLKTRSVTHSHSLPDS
notes: MED21, Mus musculus, endogenous Middle module subunit of Mediator; source: endogenous, CH12 mouse B lymphoma nuclear extract; immunopurified as part of Mediator (FLAG M2 agarose, FLAG peptide elution)
B3: MED28 (natural protein, mouse (Mus musculus; endogenous in CH12), UniProt Q920D3 1-178, looked up)
chain: MAASLGGMFTGQPPGPPPPPPGLPGQASLLQAAPGAPRPSNSTLVDELESSFEACFASLVSQDYVNGTDQEEIRTGVDQCIQKFLDIARQTECFFLQKRLQLSVQKPDQVIKEDVSELRSELQRKDALVQKHLTKLRHWQQVLEDINVQHKKPADMPQGSLAFLEQASANIPAPLKQT
notes: MED28, Mus musculus, endogenous upper Tail subunit of Mediator; source: endogenous, CH12 mouse B lymphoma nuclear extract; immunopurified as part of Mediator (FLAG M2 agarose, FLAG peptide elution)
B4: MED11 (natural protein, mouse (Mus musculus; endogenous in CH12), UniProt Q9D8C6 1-117, looked up)
chain: MATYSLANERLRALEDIEREIGAILQNAGTAILELSKEKTNERLLDRQAAAFTTSVQHVEAELSAQIRYLTQVATGQPHEGSSYSSRKDCQMALKRVDYARLKISDVARTCEQMLEN
notes: MED11, Mus musculus, endogenous Head module subunit of Mediator; source: endogenous, CH12 mouse B lymphoma nuclear extract; immunopurified as part of Mediator (FLAG M2 agarose, FLAG peptide elution)
B5: MED30 (natural protein, mouse (Mus musculus; endogenous in CH12), UniProt Q9CQI9 1-178, looked up)
chain: MSTPPLAPTGMASGPFGGPQAQQAAREVNTATLCRIGQETVQDIVYRTMEIFQLLRNMQLPNGVTYHTGTYQDRLTKLQDHLRQLSILFRKLRLVYDKCNENCGGMDPIPVEQLIPYVDEDGSKNDDRAGPPRFASEERREIVEVNKKLKQKNQQLKQIMDQLRNLIWDINAMLAMRN
notes: MED30, Mus musculus, endogenous upper Tail subunit of Mediator; source: endogenous, CH12 mouse B lymphoma nuclear extract; immunopurified as part of Mediator (FLAG M2 agarose, FLAG peptide elution)

Experiments:
Assay in all cases: cryo-EM structure; endogenous mouse Mediator immunopurified from CH12 nuclear extract through 3×FLAG-MED19 or 3×FLAG-MED25; eluted in 50 mM HEPES pH 7.9, 100 mM KCl, 5% glycerol, 1 mM EDTA, 0.005% NP-40; map at 4.0 Å overall, focused refinement of the MED1 and knob/hook ends (6-10 Å)
Settings in all cases: both partners purified
[1] = biological target: T1, MED27
[2] = biological target: T2, MED17
[3] = biological target: T3, MED20
[4] = biological target: T4, MED7
[5] = biological target: T5, MED22
[6] = biological target: T6, MED29
[7] = biological target: B5
[8] = biological target: B3

Measured: binding result

B1
binds: [1] | [2] | [3]

B2
binds: [4]

B3
binds: [1] | [5] | [2] | [6] | [7]

B4
binds: [5] | [2] | [7] | [8]

B5
binds: [1] | [5] | [2] | [6]
